Assay: label from the status in PepcDB records

Sequence	protein production
MTQTQSLALYTVAILVGALTGGSLPLLGRVGRSDIGLSFSAGVMLGAAFFHMLPEAVEESGAGILPFVLVGFLLLFLLERFVLVHVCAEPGPNARLSQAAPLPAGIEAGHGHDHHHHGHAHVATGGALALEDDGTGCAVHTTLGLAAFLGMSAHTLVDGFALGAASGQAELGLLVFLAILAHKIPNSFSLSAILRAEGYSRGRALAMNAVFALMVPVGAGIYLVLRELVRVETFTAAALAASAGTFLHLSLSDILPDLHRRGGSKWVLSGALLAGLAVMWGLRALNHAH	failed
MKTTYNRWWKKKVWFGRKDMSYKVIVDSCGEFTPEMKADGGFEHVALGIQIEDTQWTDDDSLKQEELLLKIAESTSCAKTSCPSPERYMESYHCDAERIYVVTLSAELSGSYNSAVLGKNLYEEEYGEKQIHVFNSRSASVGETLIALKVQQCEKAGMTFEEVVESVECYIEEQHTYFVLENLDTLRKNGRLTGIKSLVAGALNIKPIMGSTPQGTICQKEKARGMKKALVKMADCVAADVVNAGDKILAIAHCNCEERAKEVQRLLKERFAVKSSFIVDTSGISTVYANDGGIIVVV	not failed
MSMNSEPTPAEAFFLEGNRLLAASECRAAEACFREALALAPDFAEAHANLGMLLDQEGMAAEAERQYRLALALNPRLGHTHSNLGVLLANQKRFEEAESAYLSAIELEPDSPAAWSNLGVLQACRKQEREAEESYRTALRLDPDYHRASFNLSYLLLRQGRFDEGWSLLESRNRRWFARLEEHLPCPRWRGEDLQGRSLLIGLEAGHGDMIQFCRYAPLLKDRGAARITLVCHVALKDLLKTLDGVDTVISFDEILPDDAWDFWTPAMSIPCYCRTRLDSIPARIPYLHADPGLAEQWAAMLEREWAGPEMRIGLAWKGNPHFENDGDRSLPHLKTLEPLGAVAGVRFFSLQKGAGEEEAAQPPAGLPVVNLMRHIAGFADTAALVANLDLVITVDTAVAHLAGALGTECWVLLPEYRTDWRWLTGRTDSPWYPGVMRLFRQPRVGDWETVVAEVGEALRLFAARPRSPRGTR	failed
TATNHQGLPAVDSEILEMPPEKADGVVEGIDVNGPKAQLMLRYPDGKREQITLPEQAKLLALVKHVQSKGYPNERFELLTNFPRRKLSHLDYDITLQEAGLCPQETVFVQE	not failed
MIEPSKITVEQWLNRWLTDYAKPHLRQSTWESYETVLRLHVIPTLGSIPLKKLQPADIQRLYASKLESGLSPTRVRYIHVVLHEAMSQARESGLLLQNPTEAAKPPRHPKKKVQPLEHHHHHH	not failed
MVNLMKNEKEINGKKSHFFSLSESRFMRFLGGNDLIYALIALVLLGIVIFIFDKISYVFQPFIIVFNTIAAPIIVSLVLFYLFNPIVNMMERYRIPRLLGITIIYVAIIGIITLIVNLLIPIIGSQIESFIKNTPNYLHKITRSLDKLNNNTILSGYMGQVNEWLESAQKKIPSMVSDYSDGFGSKLATFAEAVANIGIVIGTTPFVLFFMLKDGHKFKDYTTKIMPPKFRKDFHDLLEKMSVQVGSYIQGQIIVSFCIGLLLFIGYSIIGLKYALVLASIAAVTSVVPYLGPTIAISPAIVIAIITSPLMLLKLAVVWTLVQFFEGHFISPNVMGKTLKIHPLTIIFILLCAGNLMGIVGVIIGIPLYAVLKVLVSHIFMLFKRRYNRYYGNDAGEYTITEEEKGIKQ	failed
MNDDLSWMLDSALEIPGALHAVLISADGLLMARTQDFDKDDADRVAAAMSGVQSLSRTLAFFCEDPSQTWRQTLVEFDGGWVFLISAGEGAYLGVSASPEVDMADITFRMQQLVAQLGKRLTTPPRENLGARS	failed
MFSSSYSNLPPLPHRLFLLLTVIWAGSLWTIGYLVAPTLFSVLPSRETAGMIAGHLFRYEAILGMTVGVLQLVLCNVLIRRGAERYRSLRWIVLTMLVCVLAGYFGVQPFMEGLKVKAQALNLGVSESPYKAEFGMLHGVSSVIYLVQSVLALVLVWRASAPR	failed
MTTTPTTPATPTTPNAPTPDVTITVIVYNDAERLPRAVASLLRQTHPAIEIIISDDHSTDATPSVARELEASDPRIRYLRLPENSGGCSAPRNRALEIARAPYLMFLDSDDELPENAVALLLAAHREREVDFAMGAVERIRVDTGHRSTWMAHLVDERRTVDGIEAEPGLLFEHLATSKMYTRDFLDRHALRFPEGIHYEDQLFSAQAYCLAKSFTVIPQPVYRWYIAPYVAQDAASISNQRHKLSNVSDRIHVQTLIDDFLAESGHESLRQDKDYKFLKHDFRMYAGDLPYRDEDWLTGFARIVTPYLETLSPGAYALLPRAERVVLQLVRDGRLSEAQLAARGLGHSVAPRETTADDSGCLYWGPRLPSSDWARRELDVTELGLDSRPFPSAQFRHEITSVTPGRGMTVDLTIRTYDPGLRLPVGPQRASVVVAPGRRRLMVPFRLDPVRPGVFEGRVRVDLAAAPLPVQGFDGVRHPLLRLEQQGLANTGVLLAPLTFPTLRATRPGSLRHEVTVEPEGKAAGRLQIRWRPVGVTARVAGPVARKVAGPRVRRAARLVRSALR	failed
MNDRVIQNSRQGERVLAALSYFSIFFAPIILPIFIWIFADRPTSNHAAKSLAYHIITYIGPILLILSIGFGGVLINNSSTITSVIMITVAIILFVITVWYTIKNIYRGVRVLISEHAYFHP	failed
MKKKAALATLAMLPLGVVNAHADGDIGIVTINYLNVRNEPTAESSIAFVAKKDDKVLIKDSSNGWYKIKAESGQEGWASSKYIAKSNSDSLRTSTNKEKQVISNSLNMRNGAGTSYRVITVLKKGQKVEVISESNGWSKIKYDGRLGYVSSSYLGDVSNSTNKSKTKQVNTTSLNVRSGPNTSYGLLGKLPKGSKVEVISESNGWSKIKYNGKDAYVSSMYLSDVSQSNSDNSSQSNDKKNTDKVVNTASLNVRSGPGSTYSKLGKVYKGSKVTVLSESSGWAKINFNNKEAFVVGNYLSTSADTSNNNSNSNYDNSSNSNGNNSSSSGQVNGMSGISGAKIDYKSLSYTLESHISKQVEKAASGGNVIAPSNRKSTPSPEFSTFSAQRTSSFVNASSSDIEYYLNPKNFTNTTKGMMQFLKINSYRDGISESSLNSYLNGLSSSVFKNQGAAFINAAKKYNIDVVYLVSHAMWETAYGKSTLAQGQTLTSYKGQPLSKPVKVYNFFGIGAIDKSANVSGAEAAYSNGWTSVETTIDGSAKWISQNYVNSSKYNQNTIYKMKWNYDYTWHQYATDVNWANGISGIMENLIGLYRGGSSLVFEVPQYK	failed
MIWNIDYFCNLRCKSCNAWQGKIFFPEDQIDKHLQEMKNNGIKIVSVTGGEPTLNKNVVDIIRKLKENHFFTHIATNGTNPYVLRKLYPYLDAVTISLDSNIPEEHNAYRGLKIFDTVVSNIKEAKSKVKIVTANMLVTNF	failed
KVGVLVAAHGMSTASSMAQVVGQLLDDYDVQAFDMPLDMDPSVAYDHVKRRVEKLDSGKGILLLVDMGSLTTFGERIQQETGIATRTIDMVTTPVVLEAVRKASLVDSDLDSMYQELVGFKGYSRISRNLPTDSQ	failed
MMTPSRAEKSLTIVIPALNEQDKIADTIDGVLPLARELLDDFEIFLIDDGSTDATGAIMNEFAASDRRITVHHNAERRGVGAGFEYALSRAKFDAITLIPGDHAFQNEGIARMFKAVGAADMVITYRDNQSDRSVNRSIQSHSLRFVLNCMFGFWLSDYHSMIVYPVKWLRQIAVRADGYGYQICALISLLQLGLTYVQVPVSLNAELKGSSRALRLRTYLELIGTIVSLLRRVPIRDVDRDQVPVDAGRTPAR	failed
MKLIVAIVRPEKLNEVLEALFQAEVRGLTLSRVQGHGGETERVETYRGTTVKMELHEKVRLEIGVSEPFVKPTVEAILKAARTGEVGDGKIFVLPVEKVYRIRTGEEDEAAVTPVQ	not failed
DAVELFKKANAMLDEDEDERVDEAALRQLTEMGFPENRATKALQLNHMSVPQAMEWLIEHAEDPTIDTPL	not failed
MKHKHGWASVVCCFVLFIVVCLSLTMHVQGAFRAAGHPEIGLLFFTLPGAVASFCSHRREVIRPLIGAMLAAPFCLVLMRVVFMPTRSFWQELAWLFSAVFWCALGALCYLFISSLFSHRRKKRR	failed

From a protein production outcome set (Wang et al. 2014)
